*1 amine or outer side, *2 acyl side, *3 side chain or, on linkers, in order; H or OH if unused. Where a SMILES comes first, the peptide text is derived from it. [ ]: non-standard residue; d: D form. TyrEtNAc = L-tyrosine O-ethyl acetamide, (S)-3-(4-(2-acetamidoethoxy)phenyl)-2-aminopropanoic acid, CC(=O)NCCOc1ccc(C[C@H](N[*:1])C(=O)[*:2])cc1; 3AzaPhe4AcPip = (S)-3-(6-(4-acetylpiperazin-1-yl)pyridin-3-yl)-2-aminopropanoic acid, CC(=O)N1CCN(c2ccc(C[C@H](N[*:1])C(=O)[*:2])cn2)CC1; 3Pal4Ph4CO2H = (S)-4-(5-(2-amino-2-carboxyethyl)pyridin-2-yl)benzoic acid, O=C([C@H](Cc1ccc(-c2ccc(C(=O)[*:3])cc2)nc1)N[*:1])[*:2]; hF3CF3 = (S)-2-amino-4-(3-(trifluoromethyl)phenyl)butanoic acid, O=C([C@H](CCc1cccc(C(F)(F)F)c1)N[*:1])[*:2]; hF2CF3 = (S)-2-amino-4-(2-(trifluoromethyl)phenyl)butanoic acid, O=C([C@H](CCc1ccccc1C(F)(F)F)N[*:1])[*:2]; Pro(trans-4-NH2) = O=C([C@@H]1C[C@@H](N[*:3])CN1[*:1])[*:2]; Bip(4'-COOH) = N[C@@H](Cc1ccc(-c2ccc(C(=O)O)cc2)cc1)C(=O)O; 1Nal(3S-Me) = C[C@@H](c1cccc2ccccc12)[C@H](N)C(=O)O; hPhe(4-CF3) = N[C@@H](CCc1ccc(C(F)(F)F)cc1)C(=O)O; Ala(pyrimidin-5-yl) = N[C@@H](Cc1cncnc1)C(=O)O; Phe(4-COOH) = N[C@@H](Cc1ccc(C(=O)O)cc1)C(=O)O; h3Pal(5-CN) = N#Cc1cncc(CC[C@H](N)C(=O)O)c1; Pro(4R-NH2) = N[C@H]1CN[C@H](C(=O)O)C1; Ala(4-THP) = N[C@@H](CC1CCOCC1)C(=O)O; hTyr = N[C@@H](CCc1ccc(O)cc1)C(=O)O; 4Pal = N[C@@H](Cc1ccncc1)C(=O)O; dDab = NCC[C@@H](N)C(=O)O; dNMeA = CN[C@H](C)C(=O)O; Dab = NCC[C@H](N)C(=O)O; Dap = NC[C@H](N)C(=O)O; Aib = CC(C)(N)C(=O)O
B1: SEQ ID NO: 108 (peptide)
peptide: cyclo([TyrEtNAc]W[Phe(4-COOH)]G[Pro(trans-4-NH2)][1Nal(3S-Me)]D[dNMeA]G[Bip(4'-COOH)]KG[dA][hTyr])
SMILES: CC(=O)NCCOc1ccc(C[C@@H]2NC(=O)[C@H](CCc3ccc(O)cc3)NC(=O)[C@@H](C)NC(=O)CNC(=O)[C@H](CCCCN)NC(=O)[C@H](Cc3ccc(-c4ccc(C(=O)O)cc4)cc3)NC(=O)CNC(=O)[C@@H](C)N(C)C(=O)[C@H](CC(=O)O)NC(=O)[C@H]([C@@H](C)c3cccc4ccccc34)NC(=O)[C@@H]3C[C@@H](N)CN3C(=O)CNC(=O)[C@H](Cc3ccc(C(=O)O)cc3)NC(=O)[C@H](Cc3c[nH]c4ccccc34)NC2=O)cc1
B2: SEQ ID NO: 104 (peptide)
peptide: cyclo([TyrEtNAc]W[Phe(4-COOH)]G[Pro(trans-4-NH2)][1Nal(3S-Me)]D[dNMeA]G[Bip(4'-COOH)][4Pal]S[dA][hF3CF3])
SMILES: CC(=O)NCCOc1ccc(C[C@@H]2NC(=O)[C@H](CCc3cccc(C(F)(F)F)c3)NC(=O)[C@@H](C)NC(=O)[C@H](CO)NC(=O)[C@H](Cc3ccncc3)NC(=O)[C@H](Cc3ccc(-c4ccc(C(=O)O)cc4)cc3)NC(=O)CNC(=O)[C@@H](C)N(C)C(=O)[C@H](CC(=O)O)NC(=O)[C@H]([C@@H](C)c3cccc4ccccc34)NC(=O)[C@@H]3C[C@@H](N)CN3C(=O)CNC(=O)[C@H](Cc3ccc(C(=O)O)cc3)NC(=O)[C@H](Cc3c[nH]c4ccccc34)NC2=O)cc1
B3: SEQ ID NO: 102 (peptide)
peptide: cyclo([TyrEtNAc]W[Phe(4-COOH)]G[Pro(trans-4-NH2)][1Nal(3S-Me)]D[dNMeA]G[Bip(4'-COOH)][4Pal]G[dDab][h3Pal(5-CN)])
SMILES: CC(=O)NCCOc1ccc(C[C@@H]2NC(=O)[C@H](CCc3cncc(C#N)c3)NC(=O)[C@@H](CCN)NC(=O)CNC(=O)[C@H](Cc3ccncc3)NC(=O)[C@H](Cc3ccc(-c4ccc(C(=O)O)cc4)cc3)NC(=O)CNC(=O)[C@@H](C)N(C)C(=O)[C@H](CC(=O)O)NC(=O)[C@H]([C@@H](C)c3cccc4ccccc34)NC(=O)[C@@H]3C[C@@H](N)CN3C(=O)CNC(=O)[C@H](Cc3ccc(C(=O)O)cc3)NC(=O)[C@H](Cc3c[nH]c4ccccc34)NC2=O)cc1
B4: SEQ ID NO: 1 (peptide)
peptide: cyclo([3AzaPhe4AcPip]W[Phe(4-COOH)]G[Pro(trans-4-NH2)][1Nal(3S-Me)]D[dNMeA]G[Bip(4'-COOH)][4Pal][Dap][dA][h3Pal(5-CN)])
SMILES: CC(=O)N1CCN(c2ccc(C[C@@H]3NC(=O)[C@H](CCc4cncc(C#N)c4)NC(=O)[C@@H](C)NC(=O)[C@H](CN)NC(=O)[C@H](Cc4ccncc4)NC(=O)[C@H](Cc4ccc(-c5ccc(C(=O)O)cc5)cc4)NC(=O)CNC(=O)[C@@H](C)N(C)C(=O)[C@H](CC(=O)O)NC(=O)[C@H]([C@@H](C)c4cccc5ccccc45)NC(=O)[C@@H]4C[C@@H](N)CN4C(=O)CNC(=O)[C@H](Cc4ccc(C(=O)O)cc4)NC(=O)[C@H](Cc4c[nH]c5ccccc45)NC3=O)cn2)CC1
B5: SEQ ID NO: 107 (peptide)
peptide: cyclo([TyrEtNAc]W[Phe(4-COOH)]G[Pro(trans-4-NH2)][1Nal(3S-Me)]D[dNMeA]G[Bip(4'-COOH)]KG[Aib][hTyr])
SMILES: CC(=O)NCCOc1ccc(C[C@@H]2NC(=O)[C@H](CCc3ccc(O)cc3)NC(=O)C(C)(C)NC(=O)CNC(=O)[C@H](CCCCN)NC(=O)[C@H](Cc3ccc(-c4ccc(C(=O)O)cc4)cc3)NC(=O)CNC(=O)[C@@H](C)N(C)C(=O)[C@H](CC(=O)O)NC(=O)[C@H]([C@@H](C)c3cccc4ccccc34)NC(=O)[C@@H]3C[C@@H](N)CN3C(=O)CNC(=O)[C@H](Cc3ccc(C(=O)O)cc3)NC(=O)[C@H](Cc3c[nH]c4ccccc34)NC2=O)cc1
B6: SEQ ID NO: 100 (peptide)
peptide: cyclo([TyrEtNAc]W[Phe(4-COOH)]G[Pro(trans-4-NH2)][1Nal(3S-Me)]D[dNMeA]G[Bip(4'-COOH)][4Pal][Dab][dA][hPhe(4-CF3)])
SMILES: CC(=O)NCCOc1ccc(C[C@@H]2NC(=O)[C@H](CCc3ccc(C(F)(F)F)cc3)NC(=O)[C@@H](C)NC(=O)[C@H](CCN)NC(=O)[C@H](Cc3ccncc3)NC(=O)[C@H](Cc3ccc(-c4ccc(C(=O)O)cc4)cc3)NC(=O)CNC(=O)[C@@H](C)N(C)C(=O)[C@H](CC(=O)O)NC(=O)[C@H]([C@@H](C)c3cccc4ccccc34)NC(=O)[C@@H]3C[C@@H](N)CN3C(=O)CNC(=O)[C@H](Cc3ccc(C(=O)O)cc3)NC(=O)[C@H](Cc3c[nH]c4ccccc34)NC2=O)cc1
B7: SEQ ID NO: 101 (peptide)
peptide: cyclo([TyrEtNAc]W[Phe(4-COOH)]G[Pro(trans-4-NH2)][1Nal(3S-Me)]D[dNMeA]G[Bip(4'-COOH)][4Pal][Dab][dA][hTyr])
SMILES: CC(=O)NCCOc1ccc(C[C@@H]2NC(=O)[C@H](CCc3ccc(O)cc3)NC(=O)[C@@H](C)NC(=O)[C@H](CCN)NC(=O)[C@H](Cc3ccncc3)NC(=O)[C@H](Cc3ccc(-c4ccc(C(=O)O)cc4)cc3)NC(=O)CNC(=O)[C@@H](C)N(C)C(=O)[C@H](CC(=O)O)NC(=O)[C@H]([C@@H](C)c3cccc4ccccc34)NC(=O)[C@@H]3C[C@@H](N)CN3C(=O)CNC(=O)[C@H](Cc3ccc(C(=O)O)cc3)NC(=O)[C@H](Cc3c[nH]c4ccccc34)NC2=O)cc1
B8: SEQ ID NO: 105 (peptide)
peptide: cyclo([TyrEtNAc]W[Phe(4-COOH)]G[Pro(trans-4-NH2)][1Nal(3S-Me)]D[dNMeA]G[Bip(4'-COOH)][4Pal]S[dA][hPhe(4-CF3)])
SMILES: CC(=O)NCCOc1ccc(C[C@@H]2NC(=O)[C@H](CCc3ccc(C(F)(F)F)cc3)NC(=O)[C@@H](C)NC(=O)[C@H](CO)NC(=O)[C@H](Cc3ccncc3)NC(=O)[C@H](Cc3ccc(-c4ccc(C(=O)O)cc4)cc3)NC(=O)CNC(=O)[C@@H](C)N(C)C(=O)[C@H](CC(=O)O)NC(=O)[C@H]([C@@H](C)c3cccc4ccccc34)NC(=O)[C@@H]3C[C@@H](N)CN3C(=O)CNC(=O)[C@H](Cc3ccc(C(=O)O)cc3)NC(=O)[C@H](Cc3c[nH]c4ccccc34)NC2=O)cc1
B9: SEQ ID NO: 10 (peptide)
peptide: cyclo([3Pal4Ph4CO2H]W[Phe(4-COOH)]G[Pro(trans-4-NH2)][1Nal(3S-Me)]D[dNMeA]G[3Pal4Ph4CO2H]W[Dap][dA][hTyr])
SMILES: C[C@@H]1C(=O)NCC(=O)N[C@@H](Cc2ccc(-c3ccc(C(=O)O)cc3)nc2)C(=O)N[C@@H](Cc2c[nH]c3ccccc23)C(=O)N[C@@H](CN)C(=O)N[C@H](C)C(=O)N[C@@H](CCc2ccc(O)cc2)C(=O)N[C@@H](Cc2ccc(-c3ccc(C(=O)O)cc3)nc2)C(=O)N[C@@H](Cc2c[nH]c3ccccc23)C(=O)N[C@@H](Cc2ccc(C(=O)O)cc2)C(=O)NCC(=O)N2C[C@H](N)C[C@H]2C(=O)N[C@@H]([C@@H](C)c2cccc3ccccc23)C(=O)N[C@@H](CC(=O)O)C(=O)N1C
B10: SEQ ID NO: 103 (peptide)
peptide: cyclo([TyrEtNAc]W[Phe(4-COOH)]G[Pro(trans-4-NH2)][1Nal(3S-Me)]D[dNMeA]G[Bip(4'-COOH)][4Pal]S[dA][hF2CF3])
SMILES: CC(=O)NCCOc1ccc(C[C@@H]2NC(=O)[C@H](CCc3ccccc3C(F)(F)F)NC(=O)[C@@H](C)NC(=O)[C@H](CO)NC(=O)[C@H](Cc3ccncc3)NC(=O)[C@H](Cc3ccc(-c4ccc(C(=O)O)cc4)cc3)NC(=O)CNC(=O)[C@@H](C)N(C)C(=O)[C@H](CC(=O)O)NC(=O)[C@H]([C@@H](C)c3cccc4ccccc34)NC(=O)[C@@H]3C[C@@H](N)CN3C(=O)CNC(=O)[C@H](Cc3ccc(C(=O)O)cc3)NC(=O)[C@H](Cc3c[nH]c4ccccc34)NC2=O)cc1
B11: SEQ ID NO: 106 (peptide)
peptide: cyclo([TyrEtNAc]W[Phe(4-COOH)]G[Pro(trans-4-NH2)][1Nal(3S-Me)]D[dNMeA]G[Bip(4'-COOH)][Ala(4-THP)]G[dDab][h3Pal(5-CN)])
SMILES: CC(=O)NCCOc1ccc(C[C@@H]2NC(=O)[C@H](CCc3cncc(C#N)c3)NC(=O)[C@@H](CCN)NC(=O)CNC(=O)[C@H](CC3CCOCC3)NC(=O)[C@H](Cc3ccc(-c4ccc(C(=O)O)cc4)cc3)NC(=O)CNC(=O)[C@@H](C)N(C)C(=O)[C@H](CC(=O)O)NC(=O)[C@H]([C@@H](C)c3cccc4ccccc34)NC(=O)[C@@H]3C[C@@H](N)CN3C(=O)CNC(=O)[C@H](Cc3ccc(C(=O)O)cc3)NC(=O)[C@H](Cc3c[nH]c4ccccc34)NC2=O)cc1

Target: Recombinant human IL-1β (BioLegend 579404) (human, UniProt P01584 117-269)
Assay: cell-based or functional assay
Settings: not given

Point of comparison: B5, “MRC5 IC50” value 0.0582 nM. Against it:
- B1 — 1.8-fold higher, 0.102 nM
- B2 — within 1.5-fold, 0.041 nM
- B3 — within 1.5-fold, 0.0421 nM
- B4 — 1.6-fold lower, 0.0365 nM
- B6 — 4.7-fold higher, 0.274 nM
- B7 — 4.2-fold higher, 0.247 nM
- B8 — 1.6-fold higher, 0.091 nM
- B9 — 4.4-fold higher, 0.256 nM
- B10 — within 1.5-fold, 0.066 nM
- B11 — 2.2-fold lower, 0.0263 nM

Target: T1, Recombinant human IL-1β (Homo sapiens, UniProt P01584)
T1 construct: purchased BioLegend 579404
T1 sequence (P01584 117-269): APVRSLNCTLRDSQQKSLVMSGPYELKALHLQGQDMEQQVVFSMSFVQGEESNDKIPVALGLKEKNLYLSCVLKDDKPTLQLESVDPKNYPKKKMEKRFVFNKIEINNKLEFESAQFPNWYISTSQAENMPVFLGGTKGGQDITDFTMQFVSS
Assay: IL-6 assay in MRC5 cells: inhibition of IL-1β induced IL-6 secretion (AlphaLISA)
Assay type: cell-based
Settings: inhibition of IL-1β induced IL-6 secretion in MRC5 cells; IL-1β pre-incubated 1 hour with compound; read-out: MRC5 IC50
Procedure, shortened: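 IL-1β at 2×EC80 in seeding medium (EMEM, 0.025% BSA) preincubated 1 h at ambient temperature with compound, then 3000 MRC5 cells/well added and incubated overnight at 37 °C, 5% CO2. IL-6 in conditioned medium quantified by AlphaLISA; IC50 from 4-parameter logistic fit.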

In the case of `C[C@@H]1C(=O)NCC(=O)N[C@@H](Cc2ccc(-c3ccc(C(=O)O)cc3)cc2)C(=O)N[C@@H](Cc2cncnc2)C(=O)N[C@@H](CN)C(=O)N[C@H](C)C(=O)N[C@@H](CCc2cncc(C#N)c2)C(=O)N[C@@H](Cc2ccc(-c3ccc(C(=O)O)cc3)cc2)C(=O)N[C@@H](Cc2c[nH]c3ccccc23)C(=O)N[C@@H](Cc2ccc(C(=O)O)cc2)C(=O)NCC(=O)N2C[C@H](N)C[C@H]2C(=O)N[C@@H]([C@@H](C)c2cccc3ccccc23)C(=O)N[C@@H](CC(=O)O)C(=O)N1C` [Example 27] (cyclo([Bip(4'-COOH)]W[Phe(4-COOH)]G[Pro(4R-NH2)][1Nal(3S-Me)]D[dNMeA]G[Bip(4'-COOH)][Ala(pyrimidin-5-yl)][Dap][dA][h3Pal(5-CN)])), the IC50 is reported as 0.017 nM.
